The values below come from the RNAGym collection of RNA variant scans (doi:10.7554/elife.80360).

B1: Twister Ribozyme (parent)
chain: AACACUGCCAAUGCCGGUCCCAAGCCCGGAUAAAAGUGGAGGGGGCGG

Variants of B1 are the subject of the data set. Description: self-cleavage, relative activity (ratio to wild type); higher = more cleavage; co-transcriptional.
Regarding AACAUUGCCAAUGCCGGUCCCAAGCCCGGAUAAAAGUGGAGUGGGCGG [C5U G42U], the self-cleavage is 0.134.
Next, AACAUUGCCAAUGCCGGUCCCAAGCCCGGAUAAAAGUGGAGAGGGCGG [C5U G42A]: 0.184; AACAUUGCCAAUGCCGGUCCCUAGCCCGGAUAAAAGUGGAGGGGGCGG [C5U A22U]: 0.526; AACAUUGCCAAUGCCGGUCCCCAGCCCGGAUAAAAGUGGAGGGGGCGG [C5U A22C]: 0.963.
To AACAGUGCCAAUGCCGGUCCCAAGCCCGGAUAAAAGAGGAGGGGGCGG [C5G U37A] belongs 0.404; to AACACAGCCAAUGCCGGUCCCAAGCCAGGAUAAAAGUGGAGGGGGCGG [U6A C27A], 0.119; to AACACAGCCAAUGCCGGUCCCAAGCCGGGAUAAAAGUGGAGGGGGCGG [U6A C27G], 0.11.
To AACACAGCCAAUGCCGGUCCCAAGCCUGGAUAAAAGUGGAGGGGGCGG [U6A C27U] belongs 0.682; to AACACAGCCAAUGCCGGUCCCAAGCCCGGAUAAUAGUGGAGGGGGCGG [U6A A34U], 1.04.
As for AACAUUGCCAAAGCCGGUCCCAAGCCCGGAUAAAAGUGGAGGGGGCGG [C5U U12A], the self-cleavage worked out at 0.943.
To AACAGUGCCAAUGCCGGUCCCAAGCCCGGAGAAAAGUGGAGGGGGCGG [C5G U31G] belongs 0.757.
To AACAGUGCCAAUGCCGGUCCCAAGCCCGGACAAAAGUGGAGGGGGCGG [C5G U31C] belongs 0.584; to AACACAGCCAUUGCCGGUCCCAAGCCCGGAUAAAAGUGGAGGGGGCGG [U6A A11U], 1.03.
To AACAUUGCCAAUGCCCGUCCCAAGCCCGGAUAAAAGUGGAGGGGGCGG [C5U G16C] belongs 0.159; to AACAUUGCCAAUGCCAGUCCCAAGCCCGGAUAAAAGUGGAGGGGGCGG [C5U G16A], 0.584.
In the case of AACAUUGCCAAUGCCGGUCCCAAGCCCGGAUAAAAGUGGAGGAGGCGG [C5U G43A], the self-cleavage came to 0.141.
To AACAUUGCCAAUGCCGGUCCCAAGCCCGGAUAAAAGUGGAGGGGGCGC [C5U G48C] belongs 0.883.
As for AACAUUGCGAAUGCCGGUCCCAAGCCCGGAUAAAAGUGGAGGGGGCGG [C5U C9G], the self-cleavage came out at 0.342.
Next, AACACAGCCAAUGCCGGUCCCAAGCCCGGAUAGAAGUGGAGGGGGCGG [U6A A33G]: 0.881; AACAUUGCCAAUGCCGGUCCCAUGCCCGGAUAAAAGUGGAGGGGGCGG [C5U A23U]: 0.306; AACAUUGCCAAUGCCGGUCCCACGCCCGGAUAAAAGUGGAGGGGGCGG [C5U A23C]: 0.116.
Next, AACAUUGCCAAUGCCGGUCCCAGGCCCGGAUAAAAGUGGAGGGGGCGG [C5U A23G]: 0.23.
Next, AACAUUGCCAAUGCCGGUCCCAAGCCCGGAUAAAAUUGGAGGGGGCGG [C5U G36U]: 0.644; AACAUUGCCAAUGCCGGUCCCAAGCCCGGAUAAAAGUGGAGGGGACGG [C5U G45A]: 0.605; AACAUUGCCAAUGCCGGUCCCAAGCCCCGAUAAAAGUGGAGGGGGCGG [C5U G28C]: 0.434.
In the case of AACAUUGCCAAUGCCGGUCCCAAGCCCUGAUAAAAGUGGAGGGGGCGG [C5U G28U], the self-cleavage came to 0.67.
Next, AACAUUGCCAAUGCCGGUCCCAAGCCCGGAUAAACGUGGAGGGGGCGG [C5U A35C]: 0.82; AACAUUGCCAAUGCCGGUCCCAAGCCCGGAUAAAUGUGGAGGGGGCGG [C5U A35U]: 0.91; AACACAGCCAAUGCCGGUCCCAAGCCCGGAUUAAAGUGGAGGGGGCGG [U6A A32U]: 0.862.
Next, AACACAGCCAAUGCCGGUCCCAAGCCCGGAUGAAAGUGGAGGGGGCGG [U6A A32G]: 0.987; AACAUUGCCAAUGCCGGUCCCAAGCGCGGAUAAAAGUGGAGGGGGCGG [C5U C26G]: 0.0996; AACAUUGCCAAUGCCGGUCCCAAGCACGGAUAAAAGUGGAGGGGGCGG [C5U C26A]: 0.148.
In the case of AACAUUGCCAAUGCCGGUCCCAAGCUCGGAUAAAAGUGGAGGGGGCGG [C5U C26U], the self-cleavage was found to be 0.0759.
For the variant AACACAGCCAAUGCCGGUCCCAAGCCCGUAUAAAAGUGGAGGGGGCGG [U6A G29U], the self-cleavage was determined as 0.767.
To AACACAGCCAAUGCCGGUCCCAAGCCCGAAUAAAAGUGGAGGGGGCGG [U6A G29A] belongs 0.787; to AACACAGCCAAUGCCGGUCCCAAGCCCGGAUAAAAGUGGAGGGGGGGG [U6A C46G], 0.988; to AACACAGCCAAUGCCGGUCCCAAGCCCGGAUAAAAGUGGAGGGGGUGG [U6A C46U], 1.04.
Regarding AACACAGCCAAUGCCGGUCCCAAGCCCGGAUAAAAGUGGAGGGGGAGG [U6A C46A], the self-cleavage was 0.809.
To AACACAGCCAAUGCCGGUCCCAAGCCCGGAUAAACGUGGAGGGGGCGG [U6A A35C] belongs 1.04; to AACACAGCCAAUGCCGGUCCCAAGCCCCGAUAAAAGUGGAGGGGGCGG [U6A G28C], 0.524.
Regarding AACACAGCCAAUGCCGGUCCCAAGCCCAGAUAAAAGUGGAGGGGGCGG [U6A G28A], the self-cleavage was determined as 0.616.
Regarding AACAUUGCCAAUGCCGGUCCCAAGCCCGGAUAAAAGUGUAGGGGGCGG [C5U G39U], the self-cleavage came out at 0.175.
Next, AACAUUGCCAAUGCCGGUCCCAAGCCCGGAUAAAAGUGAAGGGGGCGG [C5U G39A]: 0.167; AACAUUGCCAAUGCCGGUCCCAAGACCGGAUAAAAGUGGAGGGGGCGG [C5U C25A]: 0.0792; AACACAGCCAAUGCCGGUCCCUAGCCCGGAUAAAAGUGGAGGGGGCGG [U6A A22U]: 0.816.
To AACACAGCCAAUGCCGGUCCCCAGCCCGGAUAAAAGUGGAGGGGGCGG [U6A A22C] belongs 0.936.
As for AACACAGCCUAUGCCGGUCCCAAGCCCGGAUAAAAGUGGAGGGGGCGG [U6A A10U], the self-cleavage stood at 1.
Next, AACACAGCCGAUGCCGGUCCCAAGCCCGGAUAAAAGUGGAGGGGGCGG [U6A A10G]: 1.22.
AACAUUGCCAAUGCCGGUCCCAACCCCGGAUAAAAGUGGAGGGGGCGG [C5U G24C]: the self-cleavage worked out at 0.0979.
On to AACAUUGCCAAUGCCGGUCCCAAACCCGGAUAAAAGUGGAGGGGGCGG [C5U G24A], for which the self-cleavage amounted to 0.058.
For the variant AACACAGCCAAUGCCGGUCGCAAGCCCGGAUAAAAGUGGAGGGGGCGG [U6A C20G], the self-cleavage is 0.0822.
AACACAGCCAAUGCCGGUCACAAGCCCGGAUAAAAGUGGAGGGGGCGG [U6A C20A]: the self-cleavage was found to be 0.0593.
As for AACACAGCCAAUACCGGUCCCAAGCCCGGAUAAAAGUGGAGGGGGCGG [U6A G13A], the self-cleavage came to 0.195.
AACACAGCCAAUCCCGGUCCCAAGCCCGGAUAAAAGUGGAGGGGGCGG [U6A G13C]: the self-cleavage amounted to 0.072.
